For assay [1], the target named is T1, HSC-F (cynomolgous CD3) (cynomolgus monkey, UniProt Q95LI8 22-171; Q95LI7 23-181). Kind of assay: FACS binding, HSC-F.
Assay [2] deals with T1, HSC-F (cynomolgous CD3). Kind of assay: FACS binding, HSC-F. The source holds these as a separate data set. A general note: A flow cytometer gives signals particle by particle.
Assay [3] concerns the target T2, human CD3 on the human T-cell line Jurkat (human, UniProt P09693 23-182; P20963 22-164). Kind of assay: FACS binding, Jurkat.
Assay [4] addresses T2, human CD3 on the human T-cell line …. Nature of the assay: FACS binding, Jurkat. This is another data set of the same source.
Another assay concerns the target Jurkat (CD3) (human, UniProt P09693 23-182; P20963 22-164). Kind of assay: FACS binding, Jurkat.

Substitutions are numbered along the chain they refer to. Read-outs that look alike come from different tables or passages of the source.

T1 sequence (Q95LI7 whole entry, looked up, chain 1 of 2): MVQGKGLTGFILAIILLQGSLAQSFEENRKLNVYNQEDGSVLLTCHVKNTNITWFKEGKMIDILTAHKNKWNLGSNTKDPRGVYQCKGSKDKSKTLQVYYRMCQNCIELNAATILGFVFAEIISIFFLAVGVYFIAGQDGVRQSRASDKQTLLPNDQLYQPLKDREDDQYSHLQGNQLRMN
T1 sequence (Q95LI8 whole entry, looked up, chain 2 of 2): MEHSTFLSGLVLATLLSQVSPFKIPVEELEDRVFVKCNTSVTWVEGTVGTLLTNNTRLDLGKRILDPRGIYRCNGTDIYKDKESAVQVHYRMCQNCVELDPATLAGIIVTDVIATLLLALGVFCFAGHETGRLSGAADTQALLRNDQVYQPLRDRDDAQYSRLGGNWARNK
T2 sequence (chain, as listed by the source, chain 1 of 4): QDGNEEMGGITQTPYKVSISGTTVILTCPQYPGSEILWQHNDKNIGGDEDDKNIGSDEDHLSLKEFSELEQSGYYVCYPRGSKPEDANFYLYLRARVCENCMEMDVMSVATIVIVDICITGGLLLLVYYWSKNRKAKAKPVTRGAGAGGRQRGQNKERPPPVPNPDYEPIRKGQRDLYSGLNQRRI
T2 sequence (chain, as listed by the source, chain 2 of 4): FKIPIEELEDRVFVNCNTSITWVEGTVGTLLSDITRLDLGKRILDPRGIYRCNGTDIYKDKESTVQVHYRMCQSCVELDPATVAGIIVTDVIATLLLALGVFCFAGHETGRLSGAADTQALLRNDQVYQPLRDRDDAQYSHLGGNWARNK
T2 sequence (P09693 23-182, chain 3 of 4): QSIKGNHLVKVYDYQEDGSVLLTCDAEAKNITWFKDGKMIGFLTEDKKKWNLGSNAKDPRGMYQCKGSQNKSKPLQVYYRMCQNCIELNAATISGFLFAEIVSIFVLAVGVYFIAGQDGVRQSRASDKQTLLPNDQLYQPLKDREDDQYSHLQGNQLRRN
T2 sequence (P20963 22-164, chain 4 of 4): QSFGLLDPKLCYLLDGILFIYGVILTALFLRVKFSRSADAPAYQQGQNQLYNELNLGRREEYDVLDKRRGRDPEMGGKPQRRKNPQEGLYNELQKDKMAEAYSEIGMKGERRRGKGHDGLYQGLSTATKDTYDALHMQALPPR
Chain of Jurkat (CD3) (chain, as listed by the source, chain 1 of 4): as the sequence (chain, as listed by the source, chain 1 of 4) above
Chain of Jurkat (CD3) (chain, as listed by the source, chain 2 of 4): as the sequence (chain, as listed by the source, chain 2 of 4) above
Chain of Jurkat (CD3) (P09693 23-182, chain 3 of 4): as the sequence (P09693 23-182, chain 3 of 4) above
Chain of Jurkat (CD3) (P20963 22-164, chain 4 of 4): as the sequence (P20963 22-164, chain 4 of 4) above

B1: IgG1-huCD3-H4L1 (antibody, V domains shown)
VH: EVKLVESGGGLVKPGRSLRLSCAASGFTFNTYAMNWVRQAPGKGLEWVARIRSKYNNYATYYADSVKDRFTISRDDSKSILYLQMNSLKTEDTAMYYCVRHGNFGNSYVSWFAYWGQGTMVTVSS
VL: not shown
For orientation: EC50 means the midpoint of the concentration-response curve. A high value points to a less potent agent. Consider B1, for which the midpoint of the response with HSC-F (cynomolgous CD3) [1], the EC50, lay at 0.26 µg/mL.

B2: IgG1-huCD3-H3L1-LFLEDA (antibody, V domains shown)
VH: B1 VH with M120L
VL: not shown
With B2, the results for the EC50 with HSC-F (cynomolgous CD3) [2] and with HSC-F (cynomolgous CD3) [1] were 0.3 µg/mL and 0.19 µg/mL, respectively.

B3: IgG1-huCD3-H3L3, wild type Fc region (antibody, V domains shown)
VH: B1 VH with M120L
VL: QAVVTQEPSFSVSPGGTVTLTCRSSTGAVTTSNYANWVQQTPGQAFRGLIGGTNKRAPGVPARFSGSILGNKAALTITGAQADDESDYYCALWYSNLWVFGGGTKLTVL
The molecule B3 displayed an EC50 in assay [3] of 0.02 µg/mL.

B4: IgG1-huCD3-H3L1 with LFLEDA mutations (antibody, V domains shown)
VH: B1 VH with M120L
VL: not shown
With B4, the EC50 in assay [4] and in assay [3] was 0.04 µg/mL each time.

B5: BsIgG1 CD3 x HER2 (bispecific antibody)
chain 1: B1 VH with V5L, K13Q, G15K, R16G, R19K, K78Q, S87N, M120L, S125A
chain 2: QAVVTQESALTTSPGETVTLTCRSSTGAVTTSNYANWVQEKPDHLFTGLIGGTNKRAPGVPARFSGSLIGDKAALTITGAQTEDEAIYFCALWYSNLWVFGGGTKLTVL
chain 3: QVQLVQSGAEVKKPGASVKVSCKASGYTFTNYGISWVRQAPGQGLEWMGWLSAYSGNTIYAQKLQGRVTMTTDTSTTTAYMELRSLRSDDTAVYYCARDRIVVRPDYFDYWGQGTLVTVSS
chain 4: EIVLTQSPATLSLSPGERATLSCRASQSVSSYLAWYQQKPGQAPRLLIYDASNRATGIPARFSGSGSGTDFTLTISSLEPEDFAVYYCQQRSNWPRTFGQGTKVEIK
B5: the concentration for a half-maximal effect (EC50) in the assay with Jurkat (CD3) was 0.68 µg/mL.

B6: IgG1-huCD3-H1L2 (antibody, V domains shown)
VH: B1 VH with K13Q, R16G, I80S, S87N, M120L
VL: B3 VL with D87I, Y89F
Molecule B6 gave an EC50 with HSC-F (cynomolgous CD3) [1] of 0.31 µg/mL.

B7: IgG1-huCD3-H1L2, wild type Fc region (antibody, V domains shown)
VH: B1 VH with K13Q, R16G, I80S, S87N, M120L
VL: B3 VL with D87I, Y89F
For the molecule B7, in assay [3], a half-maximal response (EC50) required 0.08 µg/mL.

B8: IgG1-huCD3-H4L1, wild type Fc region (antibody, V domains shown)
VH: B1 VH
VL: not shown
Turning to B8, in assay [3], the response was half-maximal at 0.05 µg/mL (EC50). This EC50 is about 1.6-fold lower than that of the molecule before.

B9: IgG1-huCD3-H1L1 (antibody, V domains shown)
VH: B1 VH with K13Q, R16G, I80S, S87N, M120L
VL: not shown
B9 yielded a half-maximal effective concentration (EC50) with HSC-F (cynomolgous CD3) [1] of 0.37 µg/mL.

B10: IgG1-huCD3-H3L3 (antibody, V domains shown)
VH: B1 VH with M120L
VL: B3 VL
With B10, it took 0.11 µg/mL to reach a half-maximal effect with HSC-F (cynomolgous CD3) [1] (EC50).

B11: IgG1-huCD3-H1L3 (antibody, V domains shown)
VH: B1 VH with K13Q, R16G, I80S, S87N, M120L
VL: B3 VL
The molecule B11 showed an EC50 in the assay with HSC-F (cynomolgous CD3) [1] of 0.28 µg/mL.

B12: IgG1-huCD3-H1L3, wild type Fc region (antibody, V domains shown)
VH: B1 VH with K13Q, R16G, I80S, S87N, M120L
VL: B3 VL
Take B12: the response in assay [3] was half-maximal at 0.06 µg/mL (EC50).

B13: bsIgG1 huCD3-H3L1xHER2-LFLEDA (bispecific antibody)
heavy 1: EVKLVESGGGLVKPGRSLRLSCAASGFTFNTYAMNWVRQAPGKGLEWVARIRSKYNNYATYYADSVKDRFTISRDDSKSILYLQMNSLKTEDTAMYYCVRHGNFGNSYVSWFAYWGQGTLVTVSSASTKGPSVFPLAPSSKSTSGGTAALGCLVKDYFPEPVTVSWNSGALTSGVHTFPAVLQSSGLYSLSSVVTVPSSSLGTQTYICNVNHKPSNTKVDKRVEPKSCDKTHTCPPCPAPEFEGGPSVFLFPPKPKDTLMISRTPEVTCVVVAVSHEDPEVKFNWYVDGVEVHNAKTKPREEQYNSTYRVVSVLTVLHQDWLNGKEYKCKVSNKALPAPIEKTISKAKGQPREPQVYTLPPSREEMTKNQVSLTCLVKGFYPSDIAVEWESNGQPENNYKTTPPVLDSDGSFLLYSKLTVDKSRWQQGNVFSCSVMHEALHNHYTQKSLSLSPGK
VL 1: not shown
heavy 2: QVQLVQSGAEVKKPGASVKVSCKASGYTFTNYGISWVRQAPGQGLEWMGWLSAYSGNTIYAQKLQGRVTMTTDTSTTTAYMELRSLRSDDTAVYYCARDRIVVRPDYFDYWGQGTLVTVSSASTKGPSVFPLAPSSKSTSGGTAALGCLVKDYFPEPVTVSWNSGALTSGVHTFPAVLQSSGLYSLSSVVTVPSSSLGTQTYICNVNHKPSNTKVDKRVEPKSCDKTHTCPPCPAPEFEGGPSVFLFPPKPKDTLMISRTPEVTCVVVAVSHEDPEVKFNWYVDGVEVHNAKTKPREEQYNSTYRVVSVLTVLHQDWLNGKEYKCKVSNKALPAPIEKTISKAKGQPREPQVYTLPPSREEMTKNQVSLTCLVKGFYPSDIAVEWESNGQPENNYKTTPPVLDSDGSFFLYSRLTVDKSRWQQGNVFSCSVMHEALHNHYTQKSLSLSPGK
VL 2: B5 chain 4
In the assay with HSC-F (cynomolgous CD3) [2], B13 had a concentration giving a half-maximal response (EC50) of 3.54 µg/mL.

B14: bsIgG1 huCD3-H3L1×HER2-LFLEDA (bispecific antibody)
heavy 1: B13 heavy 1
VL 1: not shown
heavy 2: B13 heavy 2
VL 2: B5 chain 4
In assay [4], B14 had an EC50 of 0.28 µg/mL.

(Values after patent US20150337049A1 (published 2015).)
